# Results taken from the nanobody polyreactivity screen of Harvey et al. (2022).
# Assay: yeast display, Sf9 membrane polyspecificity reagent, FACS + sequencing; frameworks hold sequencing errors
# Procedure, shortened: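 After 36–48 hours of galactose induction, yeast (Saccharomyces cerevisiae BJ5465) displaying a synthetic nanobody library were stained at 4 °C for 1 hour with 10% biotinylated, detergent-solubilized Sf9 membrane reagent. Streptavidin microbeads enriched the stained cells before FACS sorting into low and high (top ~1%) gates on anti-HA and streptavidin fluorescence. Each clone's polyreactivity label reflects its gate of origin.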
row,Sequence,polyreactivity (PSR sort gate)
1,QVQLVESGGGLVQAGGSLRLSCAASGSTFLRYVMGWYRQAPGKERELVAAISRRGGSTYYADSVKGRFTISRDNAKNTVYLQMNSLNPEDTAGYYCARTVGYRTLLESDSCGQGTQVTVSS,high polyreactivity
2,QVQLVESGGGLVQAGGSLRLSCAASGSTFLSNAMGWYRPAPGKERELVAAITTSGTSTFDADSVKGRFTISRDNAKTTVYLQMNSLKPEDTAVYCAKDYLPYLHFVAPSTGDYDYWGQGTQVTVSS,low polyreactivity
3,QVQLVESGGGLVQAGGSLRLSCAASGSTFLSYVMGWYRQAPGKERELVAAINRDGGRTYYADSVKGRFTISRDNAKNTVYLQMNSLKPEDTAVYYCATTSQATSGPRRKLYYYWGQGTQVTVSS,high polyreactivity
4,QVQLVESGGGLVQAGGSLRLSCAASGSTFLVNAMGLYRQAPGKEREFVAAITGNAGSTYYADSVKGRFTISRDNAKITVYLQMNSLIPEDTAVYYCARTRRTPRGYLDFSLREYDYWGQGTQVTVSS,low polyreactivity
5,QVQLVESGGGLVQAGGSLRLSCAASGSTFLVNAMGWYRQAPGKERELVAAITQSGGSTFYADSVKGRFTISRDNEKNTVYLQMNSLKPEDTAVYYWGQGTQVSVSS,low polyreactivity
6,QVQLVESGGGLVQAGGSLRLSCAASGSTFLVNGMGWYRQAPGKERELVAAISSGDGSTYYADSVKGRFTISRDNAKNTVYLQMNSLKPEDTAVYYCAVDCWWTGYDYWGQGTQVTVSS,low polyreactivity
7,QVQLVESGGGLVQAGGSLRLSCAASGSTFLVYAMGWYRQAPGKERELVAVIDNGGDTYYADSVKGRFTISRDNAKNTVYLQMNSLIPEDTEVYYCAADLSYLGYWEYDYWGQGTQVTVSS,low polyreactivity
8,QVQLVESGGGLVQAGGSLRLSCAASGSTFLVYAMGWYRQAPGKERELVAVIRWRDGSTYYADSVKGRFTISRDNAKNTVYLQMNSLKPEDTAVYYCAAVYWGEEYEYWGQGTQVTVSS,low polyreactivity
9,QVQLVESGGGLVQAGGSLRLSCAASGSTFLVYDRGWYRQAPGKERELVAAITWSGGSTYYADSVKGRFTISRDNAKNTVYLQINSLTPEYTAVYYCAAEIHRTYSWEYPYEMYWGQGTQVTVSS,high polyreactivity
10,QVQLVESGGGLVQAGGSLRLSCAASGSTFLYYAMGWYRQAPGKERELVAAIDSGGSTYYADSVKGRFTISRDNAKNTVYLQMNSLKPEDTAVYYCNADFADHWPPNGPGALDYWGQGTQVTVSS,low polyreactivity
11,QVQLVESGGGLVQAGGSLRLSCAASGSTFMDYAMGWYRQAPGKERELVAAISSGGSTNYADSVKGRFTISRDNAKNTVYLQMNSLKPEDTAVYYCNADYYWSRTQEFDYWGQGTQVTVSS,high polyreactivity
12,QVQLVESGGGLVQAGGSLRLSCAASGSTFNANTMGWYRQAPGKEREFVAAISWTGASTYYADSVKGRFTISRDNAKNTVYLHMNSLKPEDTAVDYCNADYTVADGPYRDGYDYWGQGTQVTVSS,low polyreactivity
13,QVQLVESGGGLVQAGGSLRLSCAASGSTFNANTMGWYRQAPGKEREFVAAISWTGASTYYADSVKGRFTISRDNAKNTVYLQMNSLKPEDTAVYYCNADYTVADGPYRDGYDYWGQGTQVTVSS,low polyreactivity
14,QVQLVESGGGLVQAGGSLRLSCAASGSTFNAYAMGWYRQAPGKERELVAVISSSGGRTYYADSVKGSFTISRDNAKNTVYLQMNSLKPEDTAVYYCNADVKYRYNHWGQGTQVTLSS,high polyreactivity
15,QVQLVESGGGLVQAGGSLRLSCAASGSTFNAYVMGWYRQAPGKERELVAAITRGGSTNYADSVKGRFTISRDNAKNTVYLQMNSLKPEDTAVYDCAARGPWVIPYDYWGQGTQVTVSS,low polyreactivity
16,QVQLVESGGGLVQAGGSLRLSCAASGSTFNHNAMGWYRQAPGKERELVAAITSGTSTYYADSVKGRFTISRDNAKNTVYLQMNSLKPEDTAVYYCAADSPWGGGYFVLYNYWGQGTQVTVSS,low polyreactivity
17,QVQLVESGGGLVQAGGSLRLSCAASGSTFNIYAMGWYRQAPGKERELVAAITWSTGRTYYADSVKGRFTISRDTAKNTVYLQMNSLKPEDTAVYYCAARSKIRAFGYWGLGTQVTVSS,high polyreactivity
18,QVQLVESGGGLVQAGGSLRLSCAASGSTFNIYTMGWYRQAPGKERELVARITFSGGSTYYADSVKGRFTISRDNAKNTVYLQMNSLKPEDTAVYYCAVRVYRVDHFGYDYWGQGTQVTVSS,high polyreactivity
19,QVQLVESGGGLVQAGGSLRLSCAASGSTFNKYTMGWYRQAPGKERELVAAITSGDSTYYADSVKGRFTISRDNAKNTVYLQMNSLKPEDTAVYYCAADVRYFDPFDWWGSLVLAYDYWGQGTQVTVSS,low polyreactivity
20,QVQLVESGGGLVQAGGSLRLSCAASGSTFNQNAMGWYRQAPGKERELVARITSGGSTYYADSVKGRFTISRDNAKNTVYLQMNSLKPEDTAVYYCAARANPYVLKYYYWGQGTQVTVSS,high polyreactivity
21,QVQLVESGGGLVQAGGSLRLSCAASGSTFNRNTMGWYRQAPGKERELVAAITSSGGRTYYADSVKGRFTISRDNAKNTVFLQVNSLKPEDTAVYYCATVNRVLIAGRFDSWGQGTQVTVSS,high polyreactivity
22,QVQLVESGGGLVQAGGSLRLSCAASGSTFNRYAMGWYIQAPGKERELVAAITRSGTSTYYADSVKGRFTISRDNAKNTVYLQMNSLKPEDTAVYYCAAVRYAVHFSYDYWGQGTQVTVSS,high polyreactivity

row,Sequence,polyreactivity (PSR sort gate)
1,QVQLVESGGGLVQAGGSLRLSCAASGSTFNRYAMGWYRQAPGKERELVADINSGGRTNYADSVKGRFTISRDNAKNTVYLQMNSLKPEDTAVYFCARRFQYWLSGGQYDYWGQGTQVTVSS,high polyreactivity
2,QVQLVESGGGLVQAGGSLRLSCAASGSTFNSNAMGWYRQAPGKERELVAAISYSGGRTYYADSVKGRFTISRDNAKNTVYLQMNSLKPEDTAVYYCAKSPNHYIHFDYWGQGTQVTVSS,low polyreactivity
3,QVQLVESGGGLVQAGGSLRLSCAASGSTFNSYAMGWNRQAPGKERELVDRILWSGSTYYADSVKGRFTISRDNAKNTVYLQMNSLKPEDTAVYYFAAKRGYHIGDYWGQCTQVTVSS,high polyreactivity
4,QVQLVESGGGLVQAGGSLRLSCAASGSTFNSYAMGWYRQAPWKERELVAAISSTGGNTYYADSVKGRFTISRDNAKNTVYLQMNSLKPEDTAVYYCNARRYGKVVRSRYNYWGQGTQVTVSS,high polyreactivity
5,QVQLVESGGGLVQAGGSLRLSCAASGSTFNTYAMGWYRQAPGKERELVAAITFSVGSTYYADSVKGRFTISRDNAKNTVYLQMNSLKPEDTAVYYCARRGAYTGRYDYWGQGTQVTVSS,high polyreactivity
6,QVQLVESGGGLVQAGGSLRLSCAASGSTFNYYALGGYRQAPGKERELVAAISTSDGSTYYADSVKGRFTISRDNAKITVYVQMNSLKPEDTAVYYCAADSYERFPSYYYWGQGTQVTVSS,low polyreactivity
7,QVQLVESGGGLVQAGGSLRLSCAASGSTFNYYAMGWNRQAPVKERELVATISWSGDSTYADSVKGRFTISRDNAKNTVYLQMHSLKPEDTAVYYCATSGDWWCFRYDYWGQGTQVTVSS,low polyreactivity
8,QVQLVESGGGLVQAGGSLRLSCAASGSTFNYYAMGWYRPAPGKERELVAAICSRSSRTFYADSVKGRFSISRDNEKNTVYLQMNSLKPEDTAVYYCAVKKRAPDGDYWGQGSQVTVSS,high polyreactivity
9,QVQLVESGGGLVQAGGSLRLSCAASGSTFNYYAMGWYRQAPGKERELVAAISSSGGTTYYADSVKGRFTISRDNAKNTVYLQMKSLKPEDTAVYYCATDTPPYWGGSHFDYWGQGTQVTVSS,low polyreactivity
10,QVQLVESGGGLVQAGGSLRLSCAASGSTFNYYAMGWYRQAPGKERELVARISWSGSTYADSVKGRFTISRDNAKNTVYLQMNSLKPEDTAVYYCAAPYVQKSHRGMDYWGQGTQVTVSS,low polyreactivity
11,QVQLVESGGGLVQAGGSLRLSCAASGSTFPANAMGWYRPAPGKERELVATSSWSGGRTYYADSVKGRFTISRDNAKNTVDLQMNSLKPEDTAVYYCAKGYYWLSTYGDSRYGYWGQGTQVTVSS,high polyreactivity
12,QVQLVESGGGLVQAGGSLRLSCAASGSTFPAYAMGWYRQAPGKERELVATITYTGGSTYYADSVKGRFTISRDNAKNTVYLQMNSLKPEDTAVYYCAADRLVQEDEFDYWGQGTQVTVSS,low polyreactivity
13,QVQLVESGGGLVQAGGSLRLSCAASGSTFPDNAMGWYRQAPGKERELVAAISFSSGSTYYADSVKGRFTISRDNAKNTVYLQMNILKPEDTAVYYCAVANPSQYEWIAYYYWGQGTQVTVSS,low polyreactivity
14,QVQLVESGGGLVQAGGSLRLSCAASGSTFPDYVMGRYRQAPGKERELVAAFSSIGGSTYYADSVKGRFTISRDNAKNTVYLQMNCLKPEDTAVYYCAAENSYFYPFDYWGQGTQVTVSS,low polyreactivity
15,QVQLVESGGGLVQAGGSLRLSCAASGSTFPFYAMGWYRPAPGKERELVAAITSGGSTYADSVKGRFTISRDNAKNSVYLQMNSLKPEDTAVYYCAASWPRWWRFGYWGQGTQVTVSS,low polyreactivity
16,QVQLVESGGGLVQAGGSLRLSCAASGSTFPFYAMGWYRQAPGTERELVAAITSGGSTYADSVKGRFTISRDNAKNTVYLQMNSLKPEDTAVYYCAASWPRWWRFGYWGQGTQVTVSS,low polyreactivity
17,QVQLVESGGGLVQAGGSLRLSCAASGSTFPGNALGSYRQAPGKERELVAAIRDRGTSTYYADSVKGRFTISRDNAKNTFYLQMNSLKPEDTAVYYCAASSSNKEYDYWGQGTQVTVSS,high polyreactivity
18,QVQLVESGGGLVQAGGSLRLSCAASGSTFPGNAMGWYRQAPGKERELVAAINWSGDSTYYADSVKGRFTISRDNAKNTVYLQMNSLKPEDTAVYYCAAYGDGYYYWGQGTQVTVSS,low polyreactivity
19,QVQLVESGGGLVQAGGSLRLSCAASGSTFPGNAMGWYRQAPGKERELVASISGGGDSTYYADSVKGRFTISRDNAKNTVYLQMISLKPEDTAVYYCAVDIDSNSGTRDYWGQGTQVTVSS,low polyreactivity
20,QVQLVESGGGLVQAGGSLRLSCAASGSTFPGYAMGWYRQAPGKERELVAAGGSTYYADSVKGRFTISRDNAKNTVYLQMNSLKPEDTAVYYCAATWGSVQKGTYYYWGQGTQVTVSS,low polyreactivity
21,QVQLVESGGGLVQAGGSLRLSCAASGSTFPHYTMGWYRQAPGKERELVAVISRSGRTYYADSVKGRFTISRDNAKNTVYLQMNSLKPEDTAVYYCAVLVGRLVWSYNHWGQGTQVTVSS,high polyreactivity
